Results published in PMC12416549 (2024).
Numbering of substitutions follows the chain as printed. In names and notes the source's numbering stands. One block for each binder: values may come before it.

Target: T1, TNFR1 (Homo sapiens, UniProt P19438)
T1 chain: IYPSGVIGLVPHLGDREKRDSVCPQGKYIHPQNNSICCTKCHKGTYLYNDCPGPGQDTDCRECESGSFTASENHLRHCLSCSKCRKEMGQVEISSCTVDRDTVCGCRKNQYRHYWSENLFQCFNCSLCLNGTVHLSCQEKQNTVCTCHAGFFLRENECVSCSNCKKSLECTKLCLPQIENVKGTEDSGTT
Assay: yeast display SC50

apparent Kd (screen): 2.48 nM
B2: R96H (designed binder)
chain: SMEEEVEKAAKEYEKKKKEAIEKHLEKLKAKDKEAAERFLKELEEAAKEYAKDEAKTMSEEEAKRRAKKYKEKVLLSELSEEEQKEIKEAEEKLVHTILKYVEEAAK

apparent Kd (screen): 7.07 nM
B4: R66G (designed binder)
chain: B2 chain with R66G, H96R

apparent Kd (screen): 0.446 nM
B5: I21S (designed binder)
chain: B2 chain with I21S, H96R

apparent Kd (screen): 0.446 nM
B6: V6H (designed binder)
chain: B2 chain with V6H, H96R

apparent Kd (screen): 0.446 nM
B7: K11D (designed binder)
chain: B2 chain with K11D, H96R

apparent Kd (screen): 2.73 nM
B10: D53T (designed binder)
chain: B2 chain with D53T, H96R

apparent Kd (screen): 11.4 nM
B15: A10P (designed binder)
chain: B2 chain with A10P, H96R

apparent Kd (screen): 0.956 nM
B17: E44T (designed binder)
chain: B2 chain with E44T, H96R

apparent Kd (screen): 1.27 nM
B21: K100F (designed binder)
chain: B2 chain with H96R, K100F

apparent Kd (screen): 1.05 nM
B23: K85V (designed binder)
chain: B2 chain with K85V, H96R

apparent Kd (screen): 0.49 nM
B24: I21T (designed binder)
chain: B2 chain with I21T, H96R

apparent Kd (screen): 2.73 nM
B26: K107Y (designed binder)
chain: B2 chain with H96R, K107Y

apparent Kd (screen): 0.49 nM
B27: K88S (designed binder)
chain: B2 chain with K88S, H96R

apparent Kd (screen): 0.539 nM
B28: S1P (designed binder)
chain: B2 chain with S1P, H96R

apparent Kd (screen): 12.5 nM
B30: Y70F (designed binder)
chain: B2 chain with Y70F, H96R

apparent Kd (screen): 11.4 nM
B34: V95Q (designed binder)
chain: B2 chain with V95Q, H96R

apparent Kd (screen): 1.16 nM
B35: K15W (designed binder)
chain: B2 chain with K15W, H96R

apparent Kd (screen): 0.49 nM
B36: V6T (designed binder)
chain: B2 chain with V6T, H96R

apparent Kd (screen): 0.446 nM
B38: K27H (designed binder)
chain: B2 chain with K27H, H96R

apparent Kd (screen): 1.05 nM
B40: E103F (designed binder)
chain: B2 chain with H96R, E103F

apparent Kd (screen): 0.49 nM
B41: E82Q (designed binder)
chain: B2 chain with E82Q, H96R

Further lines, the binder ahead of its results:

B1: E104Q (designed binder)
chain: B2 chain with H96R, E104Q
apparent Kd (screen): 1.05 nM

B3: R38V (designed binder)
chain: B2 chain with R38V, H96R
apparent Kd (screen): 2.48 nM

B8: K33P (designed binder)
chain: B2 chain with K33P, H96R
apparent Kd (screen): 0.593 nM

B9: K64A (designed binder)
chain: B2 chain with K64A, H96R
apparent Kd (screen): 0.956 nM

B11: K8M (designed binder)
chain: B2 chain with K8M, H96R
apparent Kd (screen): 1.05 nM

B12: S77L (designed binder)
chain: B2 chain with S77L, H96R
apparent Kd (screen): 7.07 nM

B13: E72T (designed binder)
chain: B2 chain with E72T, H96R
apparent Kd (screen): 1.27 nM

B14: A10C (designed binder)
chain: B2 chain with A10C, H96R
apparent Kd (screen): 1.05 nM

B16: K11P (designed binder)
chain: B2 chain with K11P, H96R
apparent Kd (screen): 18.3 nM

B18: K73F (designed binder)
chain: B2 chain with K73F, H96R
apparent Kd (screen): 15.2 nM

B19: A106E (designed binder)
chain: B2 chain with H96R, A106E
apparent Kd (screen): 1.27 nM

B20: M58C (designed binder)
chain: B2 chain with M58C, H96R
apparent Kd (screen): 2.73 nM

B22: K56P (designed binder)
chain: B2 chain with K56P, H96R
apparent Kd (screen): 24.4 nM

B25: A9K (designed binder)
chain: B2 chain with A9K, H96R
apparent Kd (screen): 0.446 nM

B29: A46M (designed binder)
chain: B2 chain with A46M, H96R
apparent Kd (screen): 0.117 nM

B31: E5K (designed binder)
chain: B2 chain with E5K, H96R
apparent Kd (screen): 0.446 nM

B32: E103C (designed binder)
chain: B2 chain with H96R, E103C
apparent Kd (screen): 7.78 nM

B33: E104A (designed binder)
chain: B2 chain with H96R, E104A
apparent Kd (screen): 0.79 nM

B37: T97N (designed binder)
chain: B2 chain with H96R, T97N
apparent Kd (screen): 1.16 nM

B39: K64W (designed binder)
chain: B2 chain with K64W, H96R
apparent Kd (screen): 0.446 nM

B42: K18E (designed binder)
chain: B2 chain with K18E, H96R
apparent Kd (screen): 1.86 nM

B43: Y50R (designed binder)
chain: B2 chain with Y50R, H96R
apparent Kd (screen): 2.25 nM
